Experimental data: patent publication US20130045895A1 (published 2013)

Key:
[1] = target: T1, Human Serum Albumin (human, UniProt P02768 25-609); experiment: SPR (Biacore 2000), purified dAb over HSA (559 RU) on CM5 chip
T1 construct: also called HSA; antigen
Excerpt: (§1) The data analysis followed routine and established algorithms using the instrument's software (Bia-evaluation 3.2 RC1).

[2] = target: T1, Human Serum Albumin; experiment: SPR (Biacore 2000), purified dAb over HSA (559 RU) on CM5 chip; Table 13 cell, backed by its kon and koff
Excerpt: as §1

[3] = target: T1, Human Serum Albumin; experiment: SPR (Biacore 2000), purified dAb over HSA (559 RU) on CM5 chip; remark: listed apart in the source
Excerpt: as §1

[4] = target: the molecule itself; experiment: analytical ultracentrifugation (sedimentation equilibrium), self-association
Description: In the present examples, three 6-channel equilibrium cells were loaded with 9 protein solutions made by diluting the stock sample 10-, 20-, 30-, 150-, 200-, 300-, 400-, 500, and 600-fold (a range from 540 to 90 μg/ml). Each sample channel was loaded with 120 μl of protein solution and the reference channels were loaded with 125 μl of Dulbecco's phosphate-buffered saline (DPBS) dilution buffer. These cells were then loaded into an AN90-TI rotor and placed into a Beckman Coulter ProteomeLab XL-1 analytical centrifuge equipped with both absorbance and Rayleigh interference (refractive index detection) optical systems. Absorbance scans for the three highest concentrations were recorded at 280 nm; for the lowest concentrations 230 nm was used. The temperature was set at 25° C.

[5] = target: T1, Human Serum Albumin; experiment: see Table 2
[6] = target: T1, Human Serum Albumin; experiment: BIAcore, purified protein over HSA (559 RU)
[7] = target: Protein L (Peptostreptococcus magnus); experiment: BIAcore 3000, over Protein L (~500-700 RU)
[8] = target: Protein L (Peptostreptococcus magnus); experiment: BIAcore 3000, over Protein L; statistic over the plates analysed
[9] = target: T1, Human Serum Albumin; experiment: BIAcore, supernatant over immobilised HSA (6036 RU);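 further: expressed culture supernatants of mutant clones diluted 1:1 in HBS-EP buffer and screened for binding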
Description: Screening of expressed supernatants for Protein L and HSA binding: Mutant clones were picked into a 96 well plate format and expressed in 1 mL 2×TY 0.1 mg/ml carbenicillin supplemented with OnEx solutions 1, 2 and 3 according to the manufacturer's instructions (Novagen). Cultures were grown at 30° C. for 3 days at 950 rpm high humidity in an InforsHT shaker. Cells were pelleted by centrifugation (4.5 k in a bench top Sorvall centrifuge for 30 mins) and 75 μL of the supernatant added to an equal volume of HBS-EP buffer (GE Healthcare).

T1 sequence (P02768 25-609 limits assumed): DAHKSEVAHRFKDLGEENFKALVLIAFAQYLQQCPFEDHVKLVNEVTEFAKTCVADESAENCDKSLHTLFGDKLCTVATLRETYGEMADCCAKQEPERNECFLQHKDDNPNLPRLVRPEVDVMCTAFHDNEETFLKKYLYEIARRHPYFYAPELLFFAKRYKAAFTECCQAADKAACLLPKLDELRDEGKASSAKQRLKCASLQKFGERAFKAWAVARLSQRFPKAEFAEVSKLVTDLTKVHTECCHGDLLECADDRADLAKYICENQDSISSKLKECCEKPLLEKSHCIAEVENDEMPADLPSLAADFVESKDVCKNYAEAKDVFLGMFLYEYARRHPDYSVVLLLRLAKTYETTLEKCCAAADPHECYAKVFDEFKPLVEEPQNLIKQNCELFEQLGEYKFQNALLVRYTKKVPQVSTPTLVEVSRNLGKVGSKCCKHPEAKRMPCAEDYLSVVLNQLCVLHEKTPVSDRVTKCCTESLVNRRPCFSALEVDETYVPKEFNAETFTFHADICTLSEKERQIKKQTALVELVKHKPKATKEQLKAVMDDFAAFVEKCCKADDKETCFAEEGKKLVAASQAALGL

B1: DOM7h-11-15 (other)
VL: DIQMTQSPSSLSASVGDRVTITCRASRPIGTMLSWYQQKPGKAPKLLILAFSRLQSGVPSRFSGSGSGTDFTLTISSLQPEDFATYYCAQAGTHPTTFGQGTKVEIKR
notes: also called DOM7h-11-15 parent
B1 showed a koff [1] of 0.0045 s⁻¹, a kon [1] of 12000 M⁻¹ s⁻¹ and a Kd [2] of 384 nM.

B2: DOM7h-11-15 A43I (other, name in Kabat numbering)
VL: DIQMTQSPSSLSASVGDRVTITCRASRPIGTMLSWYQQKPGKIPKLLILAFSRLQSGVPSRFSGSGSGTDFTLTISSLQPEDFATYYCAQAGTHPTTFGQGTKVEIKR
notes: also called DOM7h-11-15 A43I mutant
B2 was tested, and the Kd [1] was 6.4 nM, the koff [1] was 0.0049 s⁻¹ and the kon [1] was 770000 M⁻¹ s⁻¹. For the same binder, the “fold improvement in antigen affinity over the DOM7h-11-15 parent” value [3] was 1000 fold.

B3: DOM7h-8 (other)
VL: DIQMTQSPSSLSASVGDRVTITCRASQSISSYLNWYQQKPGKAPKLLIYRNSPLQSGVPSRFSGSGSGTDFTLTISSLQPEDFATYYCQQTYRVPPTFGQGTKVEIKR
notes: also called DOM7h-8 parent molecule; SD ctrl
For B3, the Kd [4] was 120 nM and the binding result [5] was “binds”.

B4: DOM7h-8 Y87L (other)
VL: DIQMTQSPSSLSASVGDRVTITCRASQSISSYLNWYQQKPGKAPKLLIYRNSPLQSGVPSRFSGSGSGTDFTLTISSLQPEDFATYLCQQTYRVPPTFGQGTKVEIKR
B4: binds [6].

B5: DOM7h-8 L46D (other)
VL: DIQMTQSPSSLSASVGDRVTITCRASQSISSYLNWYQQKPGKAPKDLIYRNSPLQSGVPSRFSGSGSGTDFTLTISSLQPEDFATYYCQQTYRVPPTFGQGTKVEIKR
B5: binds [6].

B6: DOM4-130-54 (protein)
VL: DIQMTQSPSSLSASVGDRVTITCRASQDIYLNLDWYQQKPGKAPKLLINFGSELQSGVPSRFSGSGYGTDFTLTISSLQPEDFATYYCQPSFYFPYTFGQGTKVEIKRA
B6 showed a % B5 (proportion of dAb bound at 5 min of dissociation) [7] of 4%, a % B5, 25% Percentile [8] of 3.9% and a % B5, 75% Percentile [8] of 4%. It also gave a % B5, Maximum [8] of 4%, a % B5, Mean [8] of 3.9% and a % B5, Median [8] of 4%. For the same binder, the % B5, Minimum [8] was 3.6%.

B7: DOM7h-14 (other)
VL: DIQMTQSPSSLSASVGDRVTITCRASQWIGSQLSWYQQKPGKAPKLLIMWRSSLQSGVPSRFSGSGSGTDFTLTISSLQPEDFATYYCAQGAALPRTFGQGTKVEIKR
notes: also called 7h14 wt
B7 was tested, and the Kd [4] was 250000 nM and the binding result [9] was “binds”.

B8: DOM7h-14-10 A43I (other, name in Kabat numbering)
VL: DIQMTQSPSSLSASVGDRVTITCRASQWIGSQLSWYQQKPGKIPKLLIMWRSSLQSGVPSRFSGSGSGTDFTLTISSLQPEDFATYYCAQGLRHPKTFGQGTKVEIKR
notes: also called A43I mutant of DOM7h-14-10
B8 showed a Kd [1] of 13.1 nM, a koff [1] of 0.012 s⁻¹ and a kon [1] of 890000 M⁻¹ s⁻¹. For the same binder, the “fold improvement in antigen affinity over DOM7h-14-10” value [3] was 2 fold.
